Assays:
NgMAT [1] = target: T1, NgMAT (Neisseria gonorrhoeae, UniProt Q5FAC0); assay: size exclusion chromatography, ligand-induced tetramerization; type: binding; conditions: 10 uM NgMAT; AMP-PNP alone or with methionine
T1 construct: gene metK; full length, C-terminal His6 tag, codon-optimised synthetic gene, E. coli BL21(DE3), dimer without substrates, functional homotetramer with substrates
T1 sequence (Q5FAC0 1-389): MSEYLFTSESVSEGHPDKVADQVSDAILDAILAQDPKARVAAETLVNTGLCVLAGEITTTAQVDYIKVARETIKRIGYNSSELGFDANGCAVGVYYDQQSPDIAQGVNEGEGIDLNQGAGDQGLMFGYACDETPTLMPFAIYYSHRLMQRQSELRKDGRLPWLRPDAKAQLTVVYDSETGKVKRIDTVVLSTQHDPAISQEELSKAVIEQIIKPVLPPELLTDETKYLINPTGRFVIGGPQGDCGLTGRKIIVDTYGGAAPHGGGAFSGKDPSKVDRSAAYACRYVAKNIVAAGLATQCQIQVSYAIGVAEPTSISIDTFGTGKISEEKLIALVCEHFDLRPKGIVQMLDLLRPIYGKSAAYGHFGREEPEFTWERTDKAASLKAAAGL

NgMAT [2] = target: T1, NgMAT; assay: SAM formation, size exclusion chromatography; type: biochemical
[3] = target: the molecule itself; assay: SEC; diluted from ~300 μM stocks to 10 μM, incubated 100 hr at 25°C in 50% glycerol, sampled by SEC until equilibrium (~75 hr); Kd calculated from the tetrameric fraction; tetramer to dimers
[4] = target: the molecule itself; assay: SEC; Superdex 200 Increase, 25 mM TrisHCl, 150 mM KCl, 1 mM DTT; protein diluted from a 300 μM stock, pre-incubated diluted for an hour, then injected; EcMAT 1.56–100 μM, NgMAT 10–100 μM; no substrates
[5] = target: the molecule itself; assay: SEC; 10 μM NgMAT pre-incubated with saturated methionine and ATP together
[6] = target: the molecule itself; assay: SEC; 10 μM NgMAT pre-incubated with saturated methionine alone or ATP alone
[7] = target: the molecule itself; assay: crystal structure; LpMAT + 5 mM AMPPNP + 5 mM methionine, 2.82 Å, space group P1, eight copies in the asymmetric unit
[8] = target: the molecule itself; assay: crystal structure; EcMATmut + 5 mM AMPPNP + 5 mM methionine, 1.6 Å, space group P42212, one copy in the asymmetric unit

Nc1ncnc2c1ncn2[C@@H]1O[C@H](COP(=O)(O)OP(=O)(O)NP(=O)(O)O)[C@@H](O)[C@H]1O [AMP-PNP]
size exclusion chromatography, ligand-induced tetramerization (NgMAT [1]): We found that AMP‐PNP increased the tetrameric species substantially

Nc1ncnc2c1ncn2[C@@H]1O[C@H](COP(=O)(O)OP(=O)(O)OP(=O)(O)O)[C@@H](O)[C@H]1O [ATP]
SAM formation, size exclusion chromatography (NgMAT [2]; 10 uM NgMAT with methionine): in the presence of both substrates we saw a marked shift of NgMAT toward tetramerization

CSCC[C@H](N)C(=O)O [methionine]
SAM formation, size exclusion chromatography (NgMAT [2]; 10 uM NgMAT with ATP): in the presence of both substrates we saw a marked shift of NgMAT toward tetramerization

B1: Escherichia coli methionine S-adenosyltransferase (enzyme)
chain: AKHLFTSESVSEGHPDKIADQISDAVLDAILEQDPKARVACETYVKTGMVLVGGEITTSAWVDIEEITRNTVREIGYVHSDMGFDANSCAVLSAIGKQSPDINQGVDRADPLEQGAGDQGLMFGYATNETDVLMPAPITYAHRLVQRQAEVRKNGTLPWLRPDAKSQVTFQYDDGKIVGIDAVVLSTQHSEEIDQKSLQEAVMEEIIKPILPAEWLTSATKFFINPTGRFVIGGPMGDCGLTGRKIIVDTYGGMARHGGGAFSGKDPSKVDRSAAYAARYVAKNIVAAGLADRCEIQVSYAIGVAEPTSIMVETFGTEKVPSEQLTLLVREFFDLRPYGLIQMLDLLHPIYKETAAYGHFGREHFPWEKTDKAQLLRDAAGLK
notes: methionine S-adenosyltransferase (MAT) of Escherichia coli; Homotetramer (dimer of dimers) in solution; the self-association rows are of this chain with itself; also called EcMAT; E. coli MAT; source: E. coli BL21 (DE3), pET24a, purified (Ni-NTA)
Kd [3]: 8.2 µM
stoichiometry N [4]: 4

B2: Neisseria gonorrhoeae methionine S-adenosyltransferase (enzyme, UniProt B4RQ36 1-389, looked up)
chain: MSEYLFTSESVSEGHPDKVADQVSDAILDAILAQDPKARVAAETLVNTGLCVLAGEITTTAQVDYIKVARETIKRIGYNSSELGFDANGCAVGVYYDQQSPDIAQGVNEGEGIDLNQGAGDQGLMFGYACDETPTLMPFAIYYSHRLMQRQSELRKDGRLPWLRPDAKAQLTVVYDSETGKVKRIDTVVLSTQHDPAISHEELSKAVIEQIIKPVLPPELLTDETKYLINPTGRFVIGGPQGDCGLTGRKIIVDTYGGAAPHGGGAFSGKDPSKVDRSAAYACRYVAKNIVAAGLATQCQIQVSYAIGVAEPTSISIDTFGTGKISEEKLIALVCEHFDLRPKGIVQMLDLLRPIYGKSAAYGHFGREEPEFTWERTDKAASLKAAAGL
notes: methionine S-adenosyltransferase of Neisseria gonorrhoeae; also called NgMAT; N. gonorrhoeae MAT; source: E. coli BL21 (DE3), pET24a, purified (Ni-NTA)
stoichiometry N [5]: 4
stoichiometry N [6]: 2

B3: Lactiplantibacillus plantarum methionine S-adenosyltransferase (enzyme, UniProt Q88XB8 1-395, looked up)
chain: MSERHLFTSESVSEGHPDKIADQISDAILDAMLAQDPQARVAVETSVTTGLVLVFGEVSTKAYVDIQKVVRDTIKSIGYVDGQYGFDGDNCAVLVSLDEQSPDIAQGVDDSLETRSGDADPLDQIGAGDQGMMFGYAINETPELMPLPIALSHRLMRKIAALRKDGTIKWLRPDAKAQVTVEYDEDNQPKRIDTVVLSTQHDPDVDLDTIRQTVIDQVIKAVLPADLLDDQTKYLVNPTGRFVIGGPQGDAGLTGRKVIVDTYGGFAHHGGGAFSGKDATKVDRSASYAARYIAKNVVAAGLADQVEVQLAYAIGVAEPVSIAVDTAGTGKVSDEALINAIRENFDLRPAGIIKMLDLQRPIYRQTAAYGHFGRTDIDLPWEHTDKVDALKAVFK
notes: also called LpMAT; MAT from Lactiplantibacillus planatrum; source: E. coli BL21 (DE3), pET24a, purified (Ni-NTA)
stoichiometry N [7]: 2

B4: Escherichia coli methionine S-adenosyltransferase E67K K98Q (enzyme)
chain: MAKHLFTSESVSEGHPDKIADQISDAVLDAILEQDPKARVACETYVKTGMVLVGGEITTSAWVDIEKITRNTVREIGYVHSDMGFDANSCAVLSAIGQQSPDINQGVDRADPLEQGAGDQGLMFGYATNETDVLMPAPITYAHRLVQRQAEVRKNGTLPWLRPDAKSQVTFQYDDGKIVGIDAVVLSTQHSEEIDQKSLQEAVMEEIIKPILPAEWLTSATKFFINPTGRFVIGGPMGDCGLTGRKIIVDTYGGMARHGGGAFSGKDPSKVDRSAAYAARYVAKNIVAAGLADRCEIQVSYAIGVAEPTSIMVETFGTEKVPSEQLTLLVREFFDLRPYGLIQMLDLLHPIYKETAAYGHFGREHFPWEKTDKAQLLRDAAGLK
notes: methionine S-adenosyltransferase (MAT) of Escherichia coli with the salt-bridge residues of the small interface swapped to those of NgMAT; made from the EcMAT construct by site directed mutagenesis; also called EcMATmut; E. coli E67K K98Q; source: E. coli BL21 (DE3), pET24a, purified (Ni-NTA)
stoichiometry N [8]: 4
Kd [3]: 90.3 µM

Reference: paper PMC9202080, “Evolution of homo‐oligomerization of methionine S‐adenosyltransferases is replete with structure–function constrains” (Protein Science : A Publication of the Protein Society, 2022)
